Test results taken from patent publication US20140377253A1 (published 2014).
Numbering of substitutions follows the chain as printed. Numbers in names are those of the source. Each block holds one binder with its values, some of them ahead of it.

Assays:
[1] = target: FcγRIIIA expressed on cells (UniProt P08637 17-254); test: FACS
[2] = target: T1, FcγRIIB expressed on cells (UniProt P31994 43-310); test: FACS
T1 chain: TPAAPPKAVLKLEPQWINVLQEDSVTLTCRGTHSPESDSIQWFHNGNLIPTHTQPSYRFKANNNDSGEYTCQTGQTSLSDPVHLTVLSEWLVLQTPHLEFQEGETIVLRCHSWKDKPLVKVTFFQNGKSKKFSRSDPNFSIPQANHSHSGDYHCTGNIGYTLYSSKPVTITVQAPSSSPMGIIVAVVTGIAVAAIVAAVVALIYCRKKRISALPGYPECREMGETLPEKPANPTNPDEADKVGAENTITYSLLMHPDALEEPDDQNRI

FcγRIIIA expressed on cells, sequence (P08637 17-254): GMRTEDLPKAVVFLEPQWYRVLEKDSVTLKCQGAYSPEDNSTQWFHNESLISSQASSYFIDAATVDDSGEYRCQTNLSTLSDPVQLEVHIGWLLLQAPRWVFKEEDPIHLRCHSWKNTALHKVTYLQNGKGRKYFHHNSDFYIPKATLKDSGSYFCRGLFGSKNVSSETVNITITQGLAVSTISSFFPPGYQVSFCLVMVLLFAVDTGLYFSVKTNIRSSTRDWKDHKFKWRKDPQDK

B1: V263L (protein)
chain: APELLGGPSVFLFPPKPKDTLMISRTPEVTCVLVDVSHEDPEVKFNWYVDGVEVHNAKTKPREEQYNSTYRVVSVLTVLHQDWLNGKEYKCKVSNKALPAPIEKTISKAK
EC50 [1]: 1.52 nM | EC50 [2]: 1.8 nM

B3: V273E (protein)
chain: B1 chain with L33V, V43E
EC50 [1]: 1.78 nM | EC50 [2]: 1.66 nM

B4: V273M (protein)
chain: B1 chain with L33V, V43M
EC50 [1]: 1.59 nM | EC50 [2]: 1.63 nM

B5: V305W (protein)
chain: B1 chain with L33V, V75W
EC50 [1]: 0.74 nM | EC50 [2]: 2.86 nM

B7: V305K (protein)
chain: B1 chain with L33V, V75K
EC50 [1]: 0.51 nM | EC50 [2]: 1.93 nM

B8: V273C (protein)
chain: B1 chain with L33V, V43C
EC50 [1]: 1.19 nM | EC50 [2]: 2.03 nM

B9: V266L (protein)
chain: B1 chain with L33V, V36L
EC50 [1]: 0.76 nM | EC50 [2]: 2.22 nM

The remaining lines, values ahead:

EC50 [1]: 2.01 nM | EC50 [2]: 1.08 nM
B2: V273F (protein)
chain: B1 chain with L33V, V43F

EC50 [1]: 3.19 nM | EC50 [2]: 1.18 nM
B6: V273Y (protein)
chain: B1 chain with L33V, V43Y

EC50 [1]: 1.33 nM | EC50 [2]: 1.72 nM
B10: V273S (protein)
chain: B1 chain with L33V, V43S

EC50 [1]: 0.69 nM | EC50 [2]: 1.66 nM
B11: V273L (protein)
chain: B1 chain with L33V, V43L
